B1: GST-tagged mouse ZO-1(PDZ1) (residues 18–110) [mouse] / His6-tagged thioredoxin (Trx) fusion protein of mouse CLD-3 C-terminus (Trx-CLD3, residues 210–219) [mouse] (parent complex)
chain 1: IWEQHTVTLHRAPGFGFGIAISGGRDNPHFQSGETSIVISDVLKGGPAEGQLQENDRVAMVNGVSMDNVEHAFAVQQLRKSGKNAKITIRRKK
chain 2: GTAYDRKDYV

Variants of: B1
Assay: SPR; absence of phytic acid (gray bar); parent: 1.2e+03; read off a plot

Variant | response [RU]
chain 1 IWEQHTVTLHRAPGFGFGIAISGGRDNPHFQSGETSIVISDVLKGGPAEGQLQENDRVAMVNGVSMDNVEHAFAVQQLAKSGKNAKITIRRKK [chain 1 R79A] | ~40
chain 1 IWEQHTVTLHRAPGFGAGIAISGGRDNPHFQSGETSIVISDVLKGGPAEGQLQENDRVAMVNGVSMDNVEHAFAVQQLRKSGKNAKITIRRKK [chain 1 F17A] | ~15
chain 1 IWEQHTVTLHRAPGFGFGIAISGGRDNPHFQSGETSIVISDVAKGGPAEGQLQENDRVAMVNGVSMDNVEHAFAVQQLRKSGKNAKITIRRKK [chain 1 L43A] | ~28

The next lines start with the values.

response [RU] | Variant
~110 | chain 1 IWEQHTVTLHRAPGFGFGIAISGGRDNPHFQSGETSIVISAVLKGGPAEGQLQENDRVAMVNGVSMDNVEHAFAVQQLRKSGKNAKITIRRKK [chain 1 D41A]
~22 | chain 1 IWEQHTVTLHRAPGFGFGIAISGGRDNPHFQSGETSIVISDVLKGGPAEGQLQENDRVAMVNGVSMDNVEHAFAAQQLRKSGKNAKITIRRKK [chain 1 V75A]

Reference: publication PMC6222848, “Spatial Overlap of Claudin- and Phosphatidylinositol Phosphate-Binding Sites on the First PDZ Domain of Zonula Occludens 1 Studied by NMR” (Molecules : A Journal of Synthetic Chemistry and Natural …, 2018)
